# Experimental data published in publication PMC5564220 (Cell reports, 2017).
# “And” between values parts separate entries of the source, which are not always exact repeats. Identical values can stand only once.
# B1: Rvb1 (enzyme, S. cerevisiae, UniProt Q03940 1-463, looked up)
# chain: MVAISEVKENPGVNSSNSGAVTRTAAHTHIKGLGLDESGVAKRVEGGFVGQIEAREACGVIVDLIKAKKMSGRAILLAGGPSTGKTALALAISQELGPKVPFCPLVGSELYSVEVKKTETLMENFRRAIGLRIKETKEVYEGEVTELTPEDAENPLGGYGKTISHVIVGLKSAKGTKTLRLDPTIYESIQREKVSIGDVIYIEANTGAVKRVGRSDAYATEFDLETEEYVPLPKGEVHKKKEIVQDVTLHDLDVANARPQGGQDVISMMGQLLKPKKTEITEKLRQEVNKVVAKYIDQGVAELIPGVLFIDEVNMLDIEIFTYLNKALESNIAPVVVLASNRGMTTVRGTEDVISPHGVPPDLIDRLLIVRTLPYDKDEIRTIIERRATVERLQVESSALDLLATMGTETSLRYALQLLAPCGILAQTSNRKEIVVNDVNEAKLLFLDAKRSTKILETSANYL
# B2: MBP-Ino80INS (insertion domain of the Ino80 ATPase, residues 1022-1294, MBP fusion with C-terminal histidine tag) (domain or fragment, yeast, UniProt P53115 1022-1294, looked up)
# chain: VDSPFSFTTFGKTTSMLTASVANNNSSVISNSNMNLSSMSSNNISNGKFTDLIYSSRNPIKYSLPRLIYEDLILPNYNNDVDIANKLKNVKFNIFNPSTNYELCLFLSKLTGEPSLNEFFRVSTTPLLKRVIERTNGPKNTDSLSFKTITQELLEVTRNAPSEGVMASLLNVEKHAYEREYLNCIQRGYHPNVSAPPVTIEVLGSSHVTNSINNELFDPLISQALSDIPAITQYNMHVKKGIPVEDFPKTGLFPEPLNKNFSSNISMPSMDRF
# Legend:
# Rvb2 [1] = biological target: T1, Rvb2 (S. cerevisiae, UniProt Q12464 1-471); experiment: intact denatured mass spectrometry
# Rvb2 [2] = biological target: T1, Rvb2; experiment: native MS
# [3] = biological target: T2, Rvb1/Rvb2 complex (untagged hexamer) (S. cerevisiae, UniProt Q03940 1-463; Q12464 1-471); experiment: SEC-MALS
# [4] = biological target: T2, Rvb1/Rvb2 complex (untagged hexamer); experiment: native MS
# T2 sequence (Q12464 whole entry, one chain of several): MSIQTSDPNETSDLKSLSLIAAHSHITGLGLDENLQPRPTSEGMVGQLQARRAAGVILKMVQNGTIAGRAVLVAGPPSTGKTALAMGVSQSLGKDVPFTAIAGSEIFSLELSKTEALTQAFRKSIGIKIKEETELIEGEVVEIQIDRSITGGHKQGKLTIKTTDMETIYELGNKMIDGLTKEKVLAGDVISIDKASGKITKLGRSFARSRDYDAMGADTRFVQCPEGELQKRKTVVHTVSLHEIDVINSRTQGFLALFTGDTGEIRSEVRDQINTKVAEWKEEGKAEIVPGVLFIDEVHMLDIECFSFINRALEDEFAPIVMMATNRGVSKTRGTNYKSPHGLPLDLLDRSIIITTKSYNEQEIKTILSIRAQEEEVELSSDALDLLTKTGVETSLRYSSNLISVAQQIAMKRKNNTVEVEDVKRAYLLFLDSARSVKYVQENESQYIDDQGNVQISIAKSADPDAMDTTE
# T1 sequence (Q12464 whole entry): as the sequence (Q12464 whole entry, one chain of several) above
Binder,stoichiometry N (Rvb2 [1]),stoichiometry N (Rvb2 [2]),stoichiometry N [3],stoichiometry N [4]
B1,1 Rvb1 per Rvb2 (3:3),1 Rvb1 per Rvb2 (3:3 in the hexamer),,
B2,,,≥ 2 copies of Ino80INS per Rvb1/Rvb2 dodecamer,3 copies of Ino80INS per Rvb1/Rvb2 dodecamer and 1 copies of MBP-Ino80INS per Rvb1/Rvb2 hexamer and 2 copies of Ino80INS per Rvb1/Rvb2 dodecamer
